The results in this text go back to US20030054360.

What all share (assay): filter
Data set [1] addresses beta-Nerve Growth Factor (beta-NGF) (UniProt P01138). Particulars: 5-BrdU replaces T, apparent photocrosslink KD.
Data set [2] concerns the target platelet-derived growth factor (PDGF) (Homo sapiens) (UniProt P01127). The settings on record: 5-BrdU replaces T, apparent photocrosslink KD.
Data set [3] addresses Angiogenin (UniProt P03950). Particulars: 5-BrdU replaces T, apparent photocrosslink KD.
Data set [4] addresses T1, Interleukin-4 (UniProt P05112).
T1 sequence: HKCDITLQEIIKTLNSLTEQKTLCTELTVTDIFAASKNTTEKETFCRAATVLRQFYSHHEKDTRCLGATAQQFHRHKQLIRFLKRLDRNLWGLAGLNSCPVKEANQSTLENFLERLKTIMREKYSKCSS
The settings on record: 5-BrdU replaces T, apparent photocrosslink KD.

The target in data set [5] is Transforming Growth Factor beta1 (TGF-beta1) (UniProt P01137). The settings on record: 5-BrdU replaces T; apparent photocrosslink KD; plateau 80%; rate 0.5.
Transforming Growth Factor beta1 (TGF-beta1), sequence (P01137 279-390): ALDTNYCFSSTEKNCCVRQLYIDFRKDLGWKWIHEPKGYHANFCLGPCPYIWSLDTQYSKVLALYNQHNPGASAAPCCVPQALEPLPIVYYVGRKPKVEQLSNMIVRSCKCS
Data set [6] concerns the target T2, P-Selectin (Homo sapiens) (UniProt P16109).
T2 sequence: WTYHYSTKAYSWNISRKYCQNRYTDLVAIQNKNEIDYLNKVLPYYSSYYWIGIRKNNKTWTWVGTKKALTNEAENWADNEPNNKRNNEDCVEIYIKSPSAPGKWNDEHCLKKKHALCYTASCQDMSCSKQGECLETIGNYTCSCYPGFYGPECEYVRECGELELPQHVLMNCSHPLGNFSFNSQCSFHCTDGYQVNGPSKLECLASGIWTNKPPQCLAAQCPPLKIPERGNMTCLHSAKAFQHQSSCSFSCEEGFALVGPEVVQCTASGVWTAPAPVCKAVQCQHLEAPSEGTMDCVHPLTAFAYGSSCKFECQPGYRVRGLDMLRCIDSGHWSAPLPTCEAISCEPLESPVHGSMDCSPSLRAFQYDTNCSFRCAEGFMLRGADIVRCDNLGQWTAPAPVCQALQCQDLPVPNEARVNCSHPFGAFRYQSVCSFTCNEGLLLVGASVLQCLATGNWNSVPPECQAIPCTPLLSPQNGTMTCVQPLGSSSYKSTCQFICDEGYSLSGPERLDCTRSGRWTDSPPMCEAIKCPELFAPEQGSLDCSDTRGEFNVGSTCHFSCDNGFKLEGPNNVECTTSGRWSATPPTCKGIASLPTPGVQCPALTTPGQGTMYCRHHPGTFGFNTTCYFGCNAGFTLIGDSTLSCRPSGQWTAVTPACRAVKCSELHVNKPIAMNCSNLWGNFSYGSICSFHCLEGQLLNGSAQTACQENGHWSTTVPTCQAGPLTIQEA
The settings on record: 5-BrdU replaces T, apparent photocrosslink KD.

platelet-derived growth factor (PDGF) (Homo sapiens), sequence (P01127 82-190): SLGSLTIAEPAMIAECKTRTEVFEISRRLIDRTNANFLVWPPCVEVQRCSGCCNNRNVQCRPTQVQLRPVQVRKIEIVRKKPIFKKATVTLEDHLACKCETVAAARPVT
beta-Nerve Growth Factor (beta-NGF), sequence (P01138 122-241): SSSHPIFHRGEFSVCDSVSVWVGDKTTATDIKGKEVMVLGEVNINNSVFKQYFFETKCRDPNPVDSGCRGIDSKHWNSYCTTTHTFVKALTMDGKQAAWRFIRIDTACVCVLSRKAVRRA
Angiogenin, sequence (P03950 25-147): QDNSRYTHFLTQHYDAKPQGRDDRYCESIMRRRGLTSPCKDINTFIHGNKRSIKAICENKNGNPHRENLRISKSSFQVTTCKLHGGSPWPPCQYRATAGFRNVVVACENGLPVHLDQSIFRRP

Turning to “ATATATATGGGAGGACGATGCGGCCATACGCACTTCAGTGGGGATAATCCAACTGGTTTGGTGCAGACGACGAGCGGGAAAAAAAA [beta-NGF pool 031 clone 43]”, in data set [1] (plateau 38%), the Kd turned out to be 7.9 nM.
Regarding “ATATATATGGGAGGACGATGCGGGGGGCAAGAAGCACGGTACCCCAGGTCCGCCAGACGACGAGCGGGAAAAAAAA [PDGF pool 008 clone 33]”, in data set [2] (plateau 100%, rate 0.24), the Kd is 5.7 nM.
Turning to “ATATATATGGGAGGACGATGCGGCACCAAAAGGTGGTCTTAGCCTAATTATGGACGTGTCCACCAGACGACGAGCGGGAAAAAAAA [Angiogenin pool 011 clone 27]”, the Kd in data set [3] (plateau 37%, rate 0.62) is 0.3 nM.
Consider “ATATATATGGGAGGACGATGCGGGCCAAGGTTCCCTTCTGCCTCATTGTTGTGGGAACCCATCCAGACGACGAGCGGGAAAAAAAA [IL-4 pool 012 clone 41]”, for which the Kd in data set [4] (plateau 58%, rate 0.54, Table 7 sequence differs slightly from listing) amounted to 61 nM.
For “ATATATATGGGAGGACGATGCGGCCGGACATCCCCCAGGGCAAAACCAACTCCCAGACGACGAGCGGGAAAAAAAA [PDGF pool 008 clone 35]”, the Kd in data set [2] (plateau 71%, rate 0.07) stood at 5.1 nM.
Regarding “ATATATATGGGAGGACGATGCGGGCGGCAGACGCGCCGGGTACCCCAGGTCCCCAGACGACGAGCGGGAAAAAAAA [PDGF pool 008 clone 27]”, in data set [2] (plateau 100%, rate 0.34), the Kd is 3.2 nM.
Take “ATATATATGGGAGGACGATGCGGGCCAAATGGACTTTTCGCCACGAACTTACGACGGTGTTGCCAGACGACGAGCGGGAAAAAAAA [Angiogenin pool 011 clone 16]”: the Kd in data set [3] (plateau 28%, rate 2.6) was 0.3 nM.
With “ATATATATGGGAGGACGATGCGGGCACAATCAAGACCTCTCCAAACTTGAACTCTGTCTATCCCAGACGACGAGCGGGAAAAAAAA [TGF-beta1 pool 015 clone 87]”, the Kd in data set [5] was found to be 62 nM.
Regarding “ATATATATGGGAGGACGATGCGGGCCAAGGACATTCTTGTTCGTTGTTGCTGTCCACTGTCTCCAGACGACGAGCGGGAAAAAAAA [IL-4 pool 012 clone 78]”, the Kd in data set [4] (plateau 10%, rate 1.7) was determined as 9.7 nM.
Regarding “ATATATATGGGAGGACGATGCGGGCCGAAGTCTAAACCTGCTCGTGACTTTCTTTCGATGTTGCAGACGACGAGCGGGAAAAAAAA [IL-4 pool 012 clone 8]”, the Kd in data set [4] (plateau 40%, rate 1.8) was found to be 39 nM.
With “ATATATATGGGAGGACGATGCGGGCCACGTGTATTATCCTCAGCTTATAGCCATGGCATGGACCAGACGACGAGCGGGAAAAAAAA [Angiogenin pool 011 clone 58]”, the Kd in data set [3] (plateau 16%, rate 1.58) was determined as 2.2 nM.
Consider “ATATATATGGGAGGACGATGCGGGCCAACCACGTGGTATTATTGACCTTGCAATGGGAATGCCCAGACGACGAGCGGGAAAAAAAA [Angiogenin pool 011 clone 11]”, for which the Kd in data set [3] (plateau 23%, rate 1.46) was determined as 1.1 nM.
On to “ATATATATGGGAGGACGATGCGGGCCCCAAACACTTGTTCCTATCTTTCAACCCCCCTTGATCCAGACGACGAGCGGGAAAAAAAA [beta-NGF pool 031 clone 78]”, for which the Kd in data set [1] (plateau 94%, rate 0.38) was 31 nM.
On to “ATATATATGGGAGGACGATGCGGGACCAATAACACTACACTGATCATCTCCCTTCTATGTCCCCAGACGACGAGCGGGAAAAAAAA [beta-NGF pool 031 clone 7]”, for which the Kd in data set [1] (plateau 55%, rate 0.42) is 2.5 nM.
As for “ATATATATGGGAGGACGATGCGGGCCTACCAACTCCCCTCTAGTCCTGTTCTATCCACGTTGGCAGACGACGAGCGGGAAAAAAAA [IL-4 pool 012 clone 31]”, in data set [4] (plateau 49%, rate 0.98), the Kd worked out at 21 nM.
Take “ATATATATGGGAGGACGATGCGGCCCCGAGTTTCCCTAAGGTTTGGTTGACCTGTCATTTCAGCAGACGACGAGCGGGAAAAAAAA [IL-4 pool 012 clone 48]”: in data set [4] (plateau 52%, rate 0.17), the Kd was found to be 4.3 nM.
“ATATATATGGGAGGACGATGCGGGCGAAGGCACACCGAGTTCATAGTATCCCACAGACGACGAGCGGGAAAAAAAA [PDGF pool 4 clone 64]”: the Kd in data set [2] (plateau 53%, rate 0.2) was determined as 4 nM.
As to “ATATATATGGGAGGACGATGCGGGCACACTTAAATCCACTTCACCTTACAATTCCTTTATCTGCAGACGACGAGCGGGAAAAAAAA [beta-NGF pool 031 clone 17]”, the Kd in data set [1] (plateau 66%, rate 1.2, Table 7 sequence differs slightly from listing) turned out to be 0.21 nM.
“ATATATATGGGAGGACGATGCGGGCAAAGTCTTGGTCCACCAAATATGTGATGTCACCACCAGCAGACGACGAGCGGGAAAAAAAA [Angiogenin pool 011 clone 59]”: the Kd in data set [3] (plateau 26%, rate 0.52) stood at 0.22 nM.
Take “ATATATATGGGAGGACGATGCGGCACAAGGAACAAAGCGGCCCCTATCCCCAACAGACGACGAGCGGGAAAAAAAA [PDGF pool 008 clone 31]”: the Kd in data set [2] (plateau 100%, rate 0.19) was 5.3 nM.
With “ATATATATGGGAGGACGATGCGGGCACTAACTTTACCTCCACCTCTAACCACCCTCCTTTCTGCAGACGACGAGCGGGAAAAAAAA [beta-NGF pool 031 clone 65]”, in data set [1] (plateau 47%, rate 0.94), the Kd is 0.2 nM.
For the sequence “ATATATATGGGAGGACGATGCGGCAGCACCGAGGTACCCAACAGGGATCCGCCCAGACGACGAGCGGGAAAAAAAA [PDGF pool 008 clone 26]”, the Kd in data set [2] (plateau 67%, rate 0.43) came out at 1.8 nM.
As for “ATATATATGGGAGGACGATGCGGGCCAACCCCTAGTGAACAACAACACTCCCACAGACGACGAGCGGGAAAAAAAA [PDGF pool 4 clone 87]”, in data set [2] (plateau 36%, rate 0.29), the Kd stood at 2 nM.
As for “ATATATATGGGAGGACGATGCGGGCACCTACCTGAGCTACATATGACAGTGTCACCCTGGCCCCAGACGACGAGCGGGAAAAAAAA [Angiogenin pool 011 clone 14]”, the Kd in data set [3] (plateau 34%, rate 1.3) was 0.2 nM.
Regarding “ATATATATGGGAGGACGATGCGGCAAGGGAAACAGATAGCCCAGGCTCCCCCCCAGACGACGAGCGGGAAAAAAAA [PDGF pool 008 clone 37]”, in data set [2] (plateau 74%, rate 0.21), the Kd was 2.4 nM.
For the sequence “ATATATATGGGAGGACGATGCGGGCTCAATAACCTGAATCTACCTTTCCCTAGCAAAGGTCTGCAGACGACGAGCGGGAAAAAAAA [P-selectin pool 014 clone 24]”, the Kd in data set [6] (plateau 30%, rate 1.86) was determined as 2.1 nM.
Regarding “ATATATATGGGAGGACGATGCGGCCATGAACCCATCCTCTGGTTCATAATCGACGTGTTCGTGCAGACGACGAGCGGGAAAAAAAA [P-selectin pool 014 clone 17]”, the Kd in data set [6] (plateau 59%, rate 1.36) amounted to 18 nM.
Regarding “ATATATATGGGAGGACGATGCGGGCGGAAGAGGCAGGGTACCACGGCAGAGGTCAGACGACGAGCGGGAAAAAAAA [PDGF pool 4 clone 24]”, in data set [2] (plateau 52%, rate 0.25), the Kd was 2 nM.
In the case of “ATATATATGGGAGGACGATGCGGGACCAAATACCAACTTCACATCACCTTTCTTATTCTCCGGCAGACGACGAGCGGGAAAAAAAA [beta-NGF pool 031 clone 44]”, the Kd in data set [1] (plateau 58%, rate 0.59) is 2.2 nM.
For “ATATATATGGGAGGACGATGCGGGGCAAACTGCGTCGTATTATAAGCCTCGCTACAGATGCCACAGACGACGAGCGGGAAAAAAAA [Angiogenin pool 011 clone 12]”, the Kd in data set [3] (plateau 31%, rate 0.68) was 0.1 nM.
In the case of “ATATATATGGGAGGACGATGCGGCACGAGGGAATCACCTCGAACTTGTCCTGGATTACTGCCCAGACGACGAGCGGGAAAAAAAA [P-selectin pool 014 clone 21]”, the Kd in data set [6] (plateau 31%, rate 0.76) was 9.1 nM.
“ATATATATGGGAGGACGATGCGGCCATACGCACTTCAGTGGGGATAATCCAACTGGTTTGGTGCAGACGACGAGCGGGAAAAAAAA [P-selectin pool 014 clone 95]”: the Kd in data set [6] (plateau 39%, rate 1.54, same sequence as SEQ 39) is 45 nM.
With “ATATATATGGGAGGACGATGCGGGCCCTACTTGCATGAATATCCACTCCTAGGCTTGAGGGAGCAGACGACGAGCGGGAAAAAAAA [Angiogenin pool 011 clone 85]”, the Kd in data set [3] (plateau 31%, rate 3.5) was 0.2 nM.
Consider “ATATATATGGGAGGACGATGCGGCGCCCCGATTGACCTTCGATTTATCCTACTTATGGCACCCCAGACGACGAGCGGGAAAAAAAA [P-selectin pool 014 clone 14]”, for which the Kd in data set [6] (plateau 15%, rate 4) came to 0.35 nM.
